Among the data in the supplement of paper PMC10567573 are protein stability index values, retold here.

± gives the standard deviation.

This series in a line: protein stability index of a GFP-peptide fusion (GPS, HEK-293T) (PSI 1-6); higher = more stable.
[1] abbreviates: treatment: DMSO, c terminus: a fixed tail appended.
Setting [2] is: treatment: MLN4924 1 uM, 8 h, c terminus: a fixed tail appended.
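Also: 24-mer peptide tiles fused after GFP, lentivirally expressed, FACS-sorted into six equal bins by GFP/DsRed ratio, decoded by Illumina sequencing, PSI is the read-weighted mean bin number.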

The sequence EIDRSVENTLLNSQMVSTDNSLSS [MIA2] registered a protein stability index under setting [1] of 4.18 ± 0.35 and a protein stability index under setting [2] of 4.67 ± 0.23.
Consider EIKSMKKRMSELCIDFNKNLNEDD, for which, under setting [1], the protein stability index turned out to be 4.64 ± 0.6.
Consider EILGIEPDREKGFHLDVEDYLSGV [TSN], for which the protein stability index was determined as 3.27 ± 0.22 under setting [1] and 3.45 ± 0.41 under setting [2].
On to EISALNGNRINVPMVRKRSVSNST [DLC1], for which the protein stability index by setting is: under setting [1], 3.5 ± 0.071; under setting [2], 3.5 ± 0.32.
The like results for EKELISMECYDIYSKTWTKQPDLT [GAN] were, in that order, 3.21 ± 0.25 and 3.28 ± 0.36.
As for EKHPKKPEPQQKAPLVPPPPPPPP [SRPK2], the protein stability index is, setting by setting: under setting [1], 5.42 ± 0.22; under setting [2], 5.47 ± 0.09.
For the sequence EKPPRPEAKSAQPADGWKGERPRS [GCH1], the protein stability index stood at 5.2 ± 0.2 under setting [1] and 5.21 ± 0.11 under setting [2].
The like results for EKQSRCVNIEWHRFRFGQDQLLLA [WSB1] were, in that order, 2.14 ± 0.24 and 2.6 ± 0.42.
Regarding ELERARELKEKEATLCLEFLLQND [ANKRD44], the protein stability index runs as follows: under setting [1], 3.94 ± 0.2; under setting [2], 4.13 ± 0.35.
The matching figures for ELFDKLSLRFNGRVLFIKDVIGDE [KCTD10]: 2.08 ± 0.22 and 2.82 ± 0.59.
For ELFSYLRNRGRFSSTTGLFYSAEI [PRKX], the protein stability index stood at 2.36 ± 0.84 under setting [1] and 2.44 ± 1.3 under setting [2].
For the sequence ELKPEDKDPRDPEESKEPKEEKQR [GNAS], the protein stability index turned out to be 5.22 ± 0.48 under setting [1] and 5.7 ± 0.3 under setting [2].
For ELLDEKLLARGTMQPFNYVTLQCL [FEM1A], the protein stability index under setting [1] was 2.56 ± 0.41 and the protein stability index under setting [2] is 2.44 ± 0.57.
Consider ELQGLDYCKPTRLDLLLDMPPVSY [SPSB1], for which the protein stability index was determined as 2.31 ± 0.14 under setting [1] and 2.38 ± 0.11 under setting [2].
The like results for ELVLRKDCPKIVEPHGKMFNEQTW [ZSCAN9] were, in that order, 2.86 ± 0.38 and 2.78 ± 0.3.
Consider EMERTQAQLRDAVQSLQLSPRTRG [RASAL3], for which the protein stability index by setting is: under setting [1], 4.96 ± 0.36; under setting [2], 4.77 ± 0.49.
As to EMIITKAGRRMFPSYKVKVTGLNP [TBX5], the protein stability index is, setting by setting: under setting [1], 2.12 ± 0.14; under setting [2], 2.4 ± 0.32.
The like results for ENAQKKRFNQVLKNLLHAEFLRVQ [VPS39] were, in that order, 2.73 ± 0.43 and 2.29 ± 0.39.
The like results for ENFEDVGHSTDAREMSKTFIIGEL [CYB5A] were, in that order, 3.95 ± 0.4 and 3.89 ± 0.29.
Turning to ENLFTGEDLDELEEELNTLDLEE [ZC3H15], the protein stability index was 4.26 ± 0.32 (treatment: DMSO, c terminus: native) and 4.65 ± 0.32 (treatment: MLN4924 1 uM, 8 h, c terminus: native).
As for ENQSSQAELKEAVEEPSSKDVMEK [CHGA], the protein stability index by setting is: under setting [1], 5.6 ± 0.12; under setting [2], 5.72 ± 0.19.
With EPQGLGYWEAWRHHCQGKDLTEWV [SPACA3], the protein stability index is 3.85 ± 0.2 under setting [1] and 3.8 ± 0.45 under setting [2].
The matching figures for EPSRSASEADSEAGELRKPTQEEW [PPEF2]: 5.68 ± 0.33 and 5.81 ± 0.16.
The like results for EQEPELSFLKQKEQLEAEAQALRQ [PBXIP1] were, in that order, 5.42 ± 0.19 and 5.29 ± 0.21.
The like results for EQMKVYKCEHCRVLFLDHVMYTIH [IKZF1] were, in that order, 2.37 ± 0.34 and 2.23 ± 0.41.
As for EQVFLYENARSGAEAEPEDQDEGE [ZBED1], the protein stability index came out at 5.7 ± 0.25 under setting [1] and 5.52 ± 0.4 under setting [2].
The like results for ERCLLNNSLWKKNKTICKERLQIL [NLN] were, in that order, 2.31 ± 0.26 and 2.7 ± 0.49.
The like results for ERKKVQIRSMDPSALASDRFNLIL [DCAF4] were, in that order, 2.29 ± 0.16 and 2.5 ± 0.23.
The like results for ERLYVIGGNHFRGTSDYDDVLSCE [KLHL13] were, in that order, 3.28 ± 0.19 and 3.35 ± 0.18.
In turn, ERVALANRKRECGNAHYQRADFVL [FKBP8] came in with a protein stability index under setting [1] of 2.98 ± 0.27 and a protein stability index under setting [2] of 2.75 ± 0.12.
As to ESHKAKNESWIKSHFSRLSEEKLA [C10orf62], the protein stability index under setting [1] turned out to be 3.81 ± 0.17 and the protein stability index under setting [2] turned out to be 3.86 ± 0.35.
The like results for ESLDYDRCINDPYLEVLETMDNKK [CLCN6] were, in that order, 5.21 ± 0.25 and 5.29 ± 0.37.
The matching figures for ESNVSMASLGEKRDHHSTHYRASE [CHGB]: 4.71 ± 0.27 and 4.79 ± 0.33.
The like results for ESTPVGTVVGLFNVRDRDSGRNGE [PCDHGC5] were, in that order, 4.92 ± 0.33 and 4.89 ± 0.31.
Take ESVDEAGGSGPAGLRASTSDGILR [RHOBTB2]: the protein stability index came out at 5.14 ± 0.21 under setting [1] and 5.16 ± 0.2 under setting [2].
As to ETALTLACCGGFLEVADFLIKAGA [ANKRD17], the protein stability index by setting is: under setting [1], 2.54 ± 0.9; under setting [2], 2.65 ± 0.76.
The like results for ETFLSFLEYLYTDSCCPAGIFQAM [RHOBTB3] were, in that order, 2.96 ± 0.48 and 2.56 ± 0.35.
With ETRRLSIGLDNGTISEFILSEDYN [WDFY2], the protein stability index reads like this: under setting [1], 3.84 ± 0.34; under setting [2], 4.03 ± 0.3.
Sequence ETVGGAILDQTTSEDAVGGATLGQ [HDAC6] had a protein stability index under setting [1] of 5.29 ± 0.25 and a protein stability index under setting [2] of 5.62 ± 0.25.
The like results for EVIVFGGCANNLLVHHRAAHSNEI [KLHDC2] were, in that order, 2.13 ± 0.19 and 2.2 ± 0.26.
The matching figures for EVRLVQKKDTGHIYAMKILRKSDM [STK38L]: 2.65 ± 0.22 and 2.45 ± 0.29.
Consider EVTLEANPTSAPGSRLAEFGAAGV [RSAD1], for which the protein stability index reads like this: under setting [1], 4.21 ± 0.13; under setting [2], 4.25 ± 0.24.
In the case of EYAGSNTYEEAAAYIQCQFEDLNK [GNAI1], the protein stability index runs as follows: under setting [1], 3.95 ± 0.37; under setting [2], 4.12 ± 0.5.
The matching figures for EYEAGRAGPGGGAERRRAGRLLLT [ESRRA]: 4.23 ± 0.37 and 4.33 ± 0.18.
The like results for EYVHSKNLIYRDVKPENFLIGRPG [CSNK1G3] were, in that order, 2.79 ± 0.32 and 2.78 ± 0.32.
The like results for FAKAKPEIPWTSLTRKGLVRVVFF [PHTF1] were, in that order, 3.41 ± 0.51 and 3.29 ± 0.84.
As for FASGGFQVKLYDIEQQQIRNALEN [CRYL1], the protein stability index is, setting by setting: under setting [1], 2.56 ± 0.28; under setting [2], 2.95 ± 0.83.
The like results for FCADNPSELPPPMERTGGIGDSRP [DVL3] were, in that order, 4.45 ± 0.32 and 4.62 ± 0.32.
Regarding FCDRCCSQKVPLRRMCFVDPVRQC [ZFYVE21], the protein stability index under setting [1] is 2.29 ± 0.14 and the protein stability index under setting [2] came to 2.04 ± 0.15.
Regarding FDIQQGFDNPQVRFFLGDLCSRQD [NSDHL], the protein stability index is, setting by setting: under setting [1], 2.94 ± 0.24; under setting [2], 2.86 ± 0.31.
The like results for FDSHRLPGDCFLLLVLLLYAPVGF [AUP1] were, in that order, 3.02 ± 0.62 and 3.15 ± 0.17.
The like results for FEFDETSFWNSSHPRGWNDHVHIL [KLHDC2] were, in that order, 2.37 ± 0.64 and 2.18 ± 0.28.
As for FETHESDINSVRYYPSGDAFASGS [GNB5], the protein stability index runs as follows: under setting [1], 3.9 ± 0.25; under setting [2], 3.94 ± 0.16.
For the sequence FFWHLTLPERRGTCADRDNLTRRF [CASP6], the protein stability index runs as follows: under setting [1], 2.61 ± 0.36; under setting [2], 2.09 ± 0.18.
The like results for FGAWRCLLDATVAGGQTRLQASDR [FCHSD1] were, in that order, 2.36 ± 0.27 and 2.48 ± 0.34.
The matching figures for FGVAGRSCQEVLRKGCLRFQLPER [DFFB]: 2.33 ± 0.24 and 2.25 ± 0.12.
The like results for FIGEESVAAGEKSILTDNPTWIID [IMPA1] were, in that order, 2.82 ± 0.46 and 3.38 ± 0.28.
Consider FKTGNSTATCTTNNNPNSCVNIKK [KCNA3], for which the protein stability index under setting [1] was 4.53 ± 0.15 and the protein stability index under setting [2] was found to be 4.58 ± 0.36.
The like results for FLEEDNYKNIKRPPGDIMFLLVQR [USP39] were, in that order, 2.23 ± 0.37 and 2.11 ± 0.27.
On to FLGHHSFSVRPGTEATISIREDEV [SCNN1D], for which the protein stability index turned out to be 2.42 ± 0.64 under setting [1] and 3.12 ± 0.52 under setting [2].
For the sequence FLNFNGMKLFLDCLKEFPEKQELH [ZER1], the protein stability index is, setting by setting: under setting [1], 2.29 ± 0.18; under setting [2], 2.42 ± 0.18.
The matching figures for FLPEKKDTGVFAVVNSHSLSLLGK [SLC22A15]: 2.57 ± 0.39 and 2.83 ± 0.52.
The like results for FLQRGADTNLGRLEDGQTPLHLSA [ASB7] were, in that order, 3.61 ± 0.17 and 3.76 ± 0.26.
The matching figures for FMLGLGTLLPWNFFMTATQYFTNR [SLC29A1]: 2.87 ± 0.55 and 3.13 ± 0.26.
Under setting [1], FNFKFNLTEDMYAQDSIELLTTSG [CNOT7] yielded a protein stability index of 1.825 ± 0.003.
Regarding FPACRVSVTGLDPEARYLFLLDVI [TBX6], the protein stability index by setting is: under setting [1], 2.56 ± 0.53; under setting [2], 2.09 ± 0.24.
FPSDHLGDLGDPFHLGLEDILMEE [TFE3] returned a protein stability index under setting [1] of 3.82 ± 0.19 and a protein stability index under setting [2] of 4.04 ± 0.4.
Turning to FPSSGRFWKLYIEAEVTILFYFFL [CSTF3], the protein stability index reads like this: under setting [1], 2.87 ± 0.66; under setting [2], 2.35 ± 0.9.
The like results for FRQMATALAHCHQHGLVLRDLKLC [TRIB3] were, in that order, 2.21 ± 0.38 and 2.03 ± 0.3.
The like results for FSEIRETSAKVNWMPPPSRADSFK [TNXB] were, in that order, 3.58 ± 0.31 and 3.88 ± 0.37.
The matching figures for FSFKVSRWMGLACFRSLAASSPSI [CCDC70]: 2.2 ± 0.34 and 2.63 ± 0.53.
For the sequence FSIGLGPMPWLVLSEIFPGGIRGR [SLC2A12], the protein stability index stood at 2.29 ± 0.67 under setting [1] and 2.51 ± 0.5 under setting [2].
Turning to FSPSQFLNFWNKQDTLELESPSLT [MYBL2], the protein stability index by setting is: under setting [1], 2.47 ± 0.55; under setting [2], 3.06 ± 0.39.
